According to patent publication US20250282869A1 (Amgen, published 2025):

What was measured:
[1] = molecular target: T1, human delta-like ligand 3 (DLL3) (human, UniProt Q9NYJ7 27-618); assay: cell-based or functional assay
T1 sequence (looked up): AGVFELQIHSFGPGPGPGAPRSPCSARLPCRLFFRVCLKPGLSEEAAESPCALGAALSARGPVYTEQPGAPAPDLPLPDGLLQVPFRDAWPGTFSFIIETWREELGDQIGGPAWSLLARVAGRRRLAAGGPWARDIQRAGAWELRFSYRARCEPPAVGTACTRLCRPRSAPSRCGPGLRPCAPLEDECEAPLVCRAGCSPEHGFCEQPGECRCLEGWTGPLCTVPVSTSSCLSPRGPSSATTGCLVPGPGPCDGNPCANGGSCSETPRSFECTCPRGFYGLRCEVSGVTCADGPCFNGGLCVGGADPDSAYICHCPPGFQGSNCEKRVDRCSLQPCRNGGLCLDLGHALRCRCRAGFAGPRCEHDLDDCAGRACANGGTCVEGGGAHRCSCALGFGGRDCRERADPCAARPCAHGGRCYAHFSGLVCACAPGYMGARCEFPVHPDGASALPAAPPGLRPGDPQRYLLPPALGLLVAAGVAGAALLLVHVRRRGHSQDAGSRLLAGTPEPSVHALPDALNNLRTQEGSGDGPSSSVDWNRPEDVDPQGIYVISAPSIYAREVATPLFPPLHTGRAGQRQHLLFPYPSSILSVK

cynomolgus monkey DLL3 [2] = molecular target: T2, cynomolgus monkey DLL3 (cynomolgus monkey, UniProt A0A2K5WSR1 27-584); assay: cell-based or functional assay
T2 sequence: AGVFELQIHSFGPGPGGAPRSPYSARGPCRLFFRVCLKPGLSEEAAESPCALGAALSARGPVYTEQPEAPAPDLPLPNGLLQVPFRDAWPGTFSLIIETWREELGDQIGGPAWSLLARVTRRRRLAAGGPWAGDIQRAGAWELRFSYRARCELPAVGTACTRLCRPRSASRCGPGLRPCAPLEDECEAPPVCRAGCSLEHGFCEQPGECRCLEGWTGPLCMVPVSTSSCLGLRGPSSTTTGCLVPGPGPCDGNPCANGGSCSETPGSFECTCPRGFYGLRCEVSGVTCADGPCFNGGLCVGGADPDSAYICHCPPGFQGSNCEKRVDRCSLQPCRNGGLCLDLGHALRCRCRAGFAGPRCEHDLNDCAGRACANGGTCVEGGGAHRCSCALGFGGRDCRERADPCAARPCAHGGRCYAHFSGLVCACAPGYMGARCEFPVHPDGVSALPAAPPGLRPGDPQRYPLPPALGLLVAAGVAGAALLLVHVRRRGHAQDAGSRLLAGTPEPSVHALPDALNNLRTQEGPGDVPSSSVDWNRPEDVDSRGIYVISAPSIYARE

[3] = molecular target: T3, CD3ε (aa 1-27)-chicken albumin fusion protein, human (human; chicken, UniProt P07766 22-48); assay: SPR, CD3ε (aa 1-27)-chicken albumin immobilized on CM5 chip, construct in solution
T3 construct: range 1-27; Immobilized on CM5 sensor chips; The order of the parts follows the printed name; also called Human CD3; CD3E fusion protein; not shown: chicken albumin
Description: CD3 binding affinity was evaluated using surface plasmon resonance. A CD3E fusion protein (CD3ε (aa 1-27)-chicken albumin) was immobilized on CM5 Sensor Chips in the presence of a sodium acetate buffer (pH 4.5). The DLL3 multichain TCE proteins described above diluted in HBS-EP buffer were applied at different concentrations to determine the molecule association rates with CD3ε. HBP-EP buffer alone was then added to allow analysis of the molecule dissociation rates.

[4] = molecular target: T1, human delta-like ligand 3 (DLL3); assay: flow cytometry, on-cell binding to CHO cells stably expressing human DLL3, anti-Fc detection
Description: (§1) In particular, on-cell binding affinity for DLL3 was evaluated using Chinese Hamster Ovary (CHO) cells engineered to stably express either human or cynomolgus monkey DLL3. The engineered CHO cells were incubated with DLL3 multichain TCE proteins comprising two different DLL3-binders (“DLL3_1” or “DLL3_2”) for 4 hours at 4° C. in buffer (phosphate buffered saline with 1% fetal bovine serum). After incubation, the cells were washed in buffer, and then bound DLL3 multichain proteins were detected by incubation with a fluorescently labeled antibody directed to the fragment crystallizable (Fc) region of the proteins. Bound proteins were analyzed by flow cytometry and the EC50 values were calculated from non-linear regression analysis using GraphPad Prism.

cynomolgus monkey DLL3 [5] = molecular target: T2, cynomolgus monkey DLL3; assay: flow cytometry, on-cell binding to CHO cells stably expressing cynomolgus monkey DLL3, anti-Fc detection
Description: as §1

T3 sequence (P07766 22-48 limits assumed): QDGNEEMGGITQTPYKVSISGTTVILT

Kd [3]: 7.84 nM | EC50 [4]: 0.035 nM | EC50 (cynomolgus monkey DLL3 [5]): 0.04 nM
B1: DLL3_2 hetero IgG (SEFL2)(YTE) (bispecific antibody)
heavy 1: not shown
light 1: DIVMTQTPLSLSVTPGQPASISCKSSQSLLHSDGKTFLYWYLQKPGQPPQLLIYEVSNRFSGVPDRFSGSGSGTDFTLKISRVEAEDVGVYYCLQGIHLPFTFGPGTKVEIKRTVAAPSVFIFPPSDEQLKSGTASVVCLLNNFYPREAKVQWKVDNALQSGNSQESVTEQDSKDSTYSLESTLTLSKADYEKHKVYACEVTHQGLSSPVTKSFNRGEC
heavy 2: EVQLVESGGGLVQPGGSLKLSCAASGFTFNKYAINWVRQAPGKGLEWVARIRSKYNNYATYYADAVKDRFTISRDDSKNTVYLQMNNLKTEDTAVYYCARAENIGTSYISYWAYWGQGTLVTVSSASTKGPSVFPLAPSSKSTSGGTAALGCLVKDYFPEPVTVSWNSGALTSGVHTFPAVLQSSGLYSLESVVTVPSSSLGTQTYICNVNHKPSNTKVDKKVEPKSCDKTHTCPPCPAPELLGGPSVFLFPPKPKDTLYITREPEVTCVVVDVSHEDPEVKFNWYVDGVEVHNAKTKPCEEQYGSTYRCVSVLTVLHQDWLNGKEYKCKVSNKALPAPIEKTISKAKGQPREPQVYTLPPSRKEMTKNQVSLTCLVKGFYPSDIAVEWESNGQPENNYKTTPPVLKSDGSFFLYSKLTVDKSRWQQGNVFSCSVMHEALHNHYTQKSLSLSPGK
light 2: not shown
T cell dependent cellular cytotoxicity (TDCC) EC50, CHO-huDLL3 [1]: 0.1 nM | T cell dependent cellular cytotoxicity (TDCC) EC50, CHO-cyno DLL3 (cynomolgus monkey DLL3 [2]): 0.0227 nM
